Drawing on publication doi:10.1101/2025.10.08.681152 (bioRxiv, 2025), this text covers Kd, koff and kon for one molecule.

The assay has as its target EGFP, C-terminally biotinylated (Aequorea victoria GFP, engineered EGFP …, biotin on the C-terminal biotin acceptor peptide). Briefly: BLI. For orientation: BLI is a label-free optical method that tracks binding on a fibre tip over time.

B1: GBP* (engineered GFP-Binding Protein, unconjugated) (VHH)
VHH: QVQLVESGGALVQPGGSLRLSCAASGFPVNRYSMRWYRQAPGREREWVAGMSSAGDRSSYEDSVRGRFTISRDDARNTVYLQMNSLRPEDTAVYYCNVNVGFEYWGQGTQVTVSS
In the case of B1, binding was put at a Kd of 0.75 nM; the koff (as a rule, the first-order rate constant of dissociation) came to 7.1e-05 s⁻¹; the kon – broadly, the second-order rate constant of association – amounted to 94000 M⁻¹ s⁻¹.
